± gives the uncertainty stated by the source.

This data set is described as follows: amyloid nucleation score (Sup35N fusion, yeast selection) (log enrichment); library NNK3; higher = more nucleation; inactive = no reads after selection. The essentials:
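The nucleation score is a DiMSum log enrichment of output over input reads, centred on the mode score of non-aggregating sequences. Sequences under 100 input reads were excluded, and reads came from Illumina sequencing of plasmid inserts. Psi-negative yeast expressing Sup35N fused to peptides of 20 random codons were induced with 100 μM copper sulfate for 24 hours and grown 7 days at 30°C on medium lacking adenine and uracil. Random libraries had three technical output replicates.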
Consider YDCFFTEIAVVVNIE, for which the amyloid nucleation score result is “inactive”.
Regarding YDGIKSGFECLESGRKCKTA, the amyloid nucleation score result was “inactive”.
Under YDKCLQCARRHNSSILSPTG stands “inactive”; under YDRPSVVRTWRTREKAVSGP, “inactive”; under YDSRFTKLTCQSPINWHKEV, “inactive”.
Under YDTNLRLFRSRRLSPGWCFR stands “inactive”.
YDVTSDR: the amyloid nucleation score entry is “inactive”.
With YEFATNAQESS, the amyloid nucleation score result is “inactive”.
The entry for YELMIFVTELALLDEILPEQ is “inactive”; for YEPSNCKLVSMYVFCRLKLA it is -0.574 ± 1.
YEQHSY: the amyloid nucleation score entry is “inactive”.
For YETSVH, the amyloid nucleation score entry was “inactive”.
Under YETYSCEFFVYRLFCLNRSH stands “inactive”; under YEWSYCFNYLCHHYDTNWQR, 2.96 ± 0.056.
The figure for YFFTHDFHVVLNFANCIWYL is 2.99 ± 0.069.
Under YFFVHEKCQVGGRGGKLAKK stands “inactive”; under YFFWDLEILMHPFFQTVRNK, “inactive”; under YFISWSFHGFVTSPGFWSGC, 1.41 ± 0.15.
For the substance YFLGWRYQCDIVIFWYQLRV, the amyloid nucleation score entry was “inactive”.
In the case of YFLRVNGSCANIDDHGLFSW, the amyloid nucleation score result is “inactive”.
Under YFLSN stands “inactive”.
For YFNLITAYKVLSAHGRTLWR, the amyloid nucleation score entry is “inactive”.
Under YFQLLVSLVSVFH stands “inactive”; under YFRNHSRVDDLDGGRRDVFR, “inactive”; under YFRQFSVYYLFFNLMYILHA, “inactive”.
Consider YFRVAFCTHGFIMARCAFSS, for which the amyloid nucleation score entry was “inactive”.
With YFRYIWEHMLVYGRVAKDDP, the amyloid nucleation score entry is “inactive”.
The entry for YFSRLTYCSRNSSCWILYCF is “inactive”.
Consider YFSWLSLHVFVSGFVRIVCR, for which the amyloid nucleation score result is “inactive”.
In the case of YFVYEG, the amyloid nucleation score entry is “inactive”.
The entry for YFYFDFNYNMYGVKALLVLC is “inactive”; for YGCFVPY it is “inactive”.
For the substance YGEFDTLQW, the amyloid nucleation score result is “inactive”.
The entry for YGMWHHYFGDLTLSSRLNHV is “inactive”.
The entry for YGNHFSNNDGSIFER is “inactive”; for YGPSLQNSWDPFPRASSPVI it is “inactive”.
For the substance YGRRKYSWAVWICKHIGAYG, the amyloid nucleation score entry is “inactive”.
The figure for YGSIRLNMYWFVCVCTISWI is 0.661 ± 0.13; for YGSSHYPYNSY it is “inactive”; for YGTNQMTLPKCRYWGFYREE it is -0.149 ± 0.7.
In turn, YGVWCSYKFVYSCDPYDSAG came in with an amyloid nucleation score of 0.557 ± 0.15.
For YGWIDRS, the amyloid nucleation score entry was “inactive”.
Under YHWSGRLL stands “inactive”.
For the substance YIAVMILLCHVKHEMSLLII, the amyloid nucleation score worked out at 2.71 ± 0.055.
The figure for YIFFMDLNYLSSNSITVRAV is 1.53 ± 0.074; for YIFVALYPSHT it is 0.443 ± 0.28; for YIILCSIFSYWENMGHI it is 2.78 ± 0.08.
Under YIKCKFF stands “inactive”; under YILGKSKSPFLLKCAVKI, “inactive”.
Substance YILMDFSYADLSFVLEIFFA showed an amyloid nucleation score of 0.09 ± 0.64.
Under YINQWCTCVT stands “inactive”; under YINRKLRDACRRYVFGW, 0.05 ± 0.89; under YIRATCDSLCVISVWVLRFL, “inactive”.
With YISLT, the amyloid nucleation score result was “inactive”.
Under YIVLAPCWCHIGSIDLAVPH stands 3.01 ± 0.06; under YIVLMSLLFGM, “inactive”; under YKGKWLFCRQMSCEHFFGFF, “inactive”.
Consider YKIMTLYTSCKRFEVHRGCT, for which the amyloid nucleation score entry is “inactive”.
For YKRLVSLNVEWALRK, the amyloid nucleation score entry was “inactive”.
The entry for YLFHLLSDRRCEDMCVVGIK is “inactive”; for YLFHSEGHWRDPHSLPSYLT it is “inactive”; for YLGGFLWVWKQFSSCRLVQY it is -0.057 ± 0.78.
As for YLGVSILVSSYYWVRVGTGR, the amyloid nucleation score entry was “inactive”.
On to YLHAEYRMCKLIFKMEEFRD, for which the amyloid nucleation score is 0.276 ± 0.46.
With YLHYRHYSSVCFYFSSNISN, the amyloid nucleation score result is “inactive”.
For YLIMSVSYSASTCLIKMAMV, the amyloid nucleation score entry was “inactive”.
In the case of YLLDLTTVCAGPWRIPQLMK, the amyloid nucleation score entry was “inactive”.
In the case of YLLHK, the amyloid nucleation score result is “inactive”.
Under YLLKCYVMSDRSMSTCVQLE stands “inactive”; under YLLNVVYGKEVHMASDFLYG, “inactive”.
Under YLLVHLAKCIFNWHLSSIEM stands -0.109 ± 0.78; under YLNSDYSMKFTRWY, 1.1 ± 0.12; under YLPAHIYMK, “inactive”.
For YLRAAIL, the amyloid nucleation score entry is “inactive”.
Turning to YLSEPGNYRVSNVIGCNRID, the amyloid nucleation score entry was “inactive”.
On to YLSGS, for which the amyloid nucleation score entry is “inactive”.
Take YLTMLWLFHLRERAALMGLN: the amyloid nucleation score entry is “inactive”.
The entry for YLVSIRNNYRCEV is “inactive”.
For YLWFWQFNTRLGVRRIFWTR, the amyloid nucleation score result is “inactive”.
YLWTTLCKPRVDFRAEYRDL gave an amyloid nucleation score of 2.05 ± 0.058.
As for YLYFV, the amyloid nucleation score result is “inactive”.
For the substance YMFRFGSTDCEAYV, the amyloid nucleation score result was “inactive”.
Under YMGILCMGLLNSKW stands -0.606 ± 0.76; under YMMGKISSPGNLMTMFAVDG, “inactive”; under YMNSVACSEMFSFSGLWEWW, “inactive”.
For the substance YMSSYRKEDCGQWLDEWPMA, the amyloid nucleation score entry was “inactive”.
Regarding YMTGLD, the amyloid nucleation score entry is “inactive”.
On to YMVVFSVNDRMFVPFY, for which the amyloid nucleation score amounted to 0.926 ± 0.15.
Take YMWKVVDCSPVVSTS: the amyloid nucleation score is -0.352 ± 1.3.
Under YNDCNIN stands “inactive”; under YNDDKYCFDMNCMSPRYRGD, -0.191 ± 0.4.
Consider YNDKGTV, for which the amyloid nucleation score entry is “inactive”.
Consider YNFTSFLLIAGNAGSSSSRK, for which the amyloid nucleation score was found to be 2.04 ± 0.073.
Take YNGLGMIVPMFLVHPLK: the amyloid nucleation score result is “inactive”.
Turning to YNLSRHQRTSTSLRCKGQSF, the amyloid nucleation score stood at 0.241 ± 0.44.
The entry for YNMSDTVRYHMSQVADCYIV is “inactive”.
Under YNRMHMDCTKRIE stands “inactive”.
For YNRYV, the amyloid nucleation score entry was “inactive”.

The record behind these values is the supplement of paper PMC12042874.
